# Assay results from patent publication US20240034816A1 (Sanofi, published 2024).
# T1: human CD32a (human FcγRIIA) (human, UniProt P12318 34-217, limits assumed)
# T1 construct: also called HuFcyRIIa
# T1 sequence (looked up): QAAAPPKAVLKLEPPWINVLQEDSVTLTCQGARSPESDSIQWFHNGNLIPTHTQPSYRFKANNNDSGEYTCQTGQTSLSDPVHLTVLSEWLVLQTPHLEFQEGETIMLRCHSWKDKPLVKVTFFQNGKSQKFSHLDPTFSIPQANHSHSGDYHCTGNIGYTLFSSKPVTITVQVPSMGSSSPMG
# T2: human CD32b (human FcγRIIB) (human, UniProt P31994 43-217, limits assumed)
# T2 construct: also called HuFcyRIIb
# T2 sequence (looked up): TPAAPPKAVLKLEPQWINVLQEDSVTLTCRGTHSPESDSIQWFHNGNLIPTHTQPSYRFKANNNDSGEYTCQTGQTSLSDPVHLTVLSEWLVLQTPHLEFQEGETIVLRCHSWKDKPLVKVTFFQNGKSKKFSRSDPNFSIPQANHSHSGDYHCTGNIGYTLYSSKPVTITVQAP
# T3: human BCMA on RPMI 8226 multiple myeloma cells (human, UniProt Q02223 1-184)
# T3 construct: whole, on cells; also called BCMA on RPMI cells
# T3 sequence (looked up): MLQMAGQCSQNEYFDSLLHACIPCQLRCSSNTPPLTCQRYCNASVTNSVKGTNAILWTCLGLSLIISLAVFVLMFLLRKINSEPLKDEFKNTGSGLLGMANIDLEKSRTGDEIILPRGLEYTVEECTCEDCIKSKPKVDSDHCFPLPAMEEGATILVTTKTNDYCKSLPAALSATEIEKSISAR
# Experiments:
# [1] = target: T4, recombinant cynomolgus NKp46 extracellular domain with C-terminal Flag-M2 tag (cynomolgus, UniProt Q95JB9 22-254); assay: SPR (Biacore 8K), NKCE captured by anti-human Fc, antigen as analyte, 1:1 model; Experiment No 2
# T4 construct: range 22-254; also called cyno NKp46; not shown: C-terminal Flag-M2 tag
# Experimental: (§1) Measurements were performed in multicycle kinetics experiments for each antibody using a Biacore 8K instrument. In each multicycle experiment the antibodies were captured via an anti-hum a Fc antibody immobilized on a series S CM5 sensor chip (human antibody capture kit, Cytiva, Uppsala, Catalog No. BR1008-39).
# (§2) The antigens, diluted as described above (concentration range 0.1 nM to 50 nM), were injected at a flow rate of 60 μL/min for 240 sec followed by a dissociation phase of 400 sec. All analyte concentrations were run in duplicate together with multiple buffer blanks for double referencing. Regeneration of the capture surface was performed with regeneration solution (3 mol/L MgCl2) for 60 sec at 30 μL/min. Binding kinetics data were evaluated with the Biacore 8K Evaluation Software version 1.1.1.7442 using a 1:1 binding model with mass transport limitation.
# recombinant human BCMA = recombinant human BCMA (human, UniProt Q02223 1-54); assay: as above
# Experimental: as §1, §2
# cyno BCMA (PPB-17990) = target: T5, cyno BCMA (PPB-17990) (cynomolgus, UniProt A0A2K5UD97 1-53); assay: as above
# T5 construct: also called cynomolgus BCMA
# Experimental: as §1, §2
# [2] = target: T6, recombinant human NKp46 extracellular domain (Gln22-Asn255) with C-terminal 6xHis tag (human, UniProt O76036 22-255); assay: as above
# T6 construct: range 22-255; also called huNKp46
# Experimental: as §1, §2
# [3] = target: T1, human CD32a (human FcγRIIA); assay: SPR, fit Steady State Affinity, Exp No 1
# cynomolgus CD32a = target: T7, cynomolgus CD32a (cynomolgus); assay: SPR, fit Steady State Affinity, Exp No 1
# T7 construct: also called CyFcyRIIa
# [4] = target: T8, human CD16b (human FcgRIIIB) (human, UniProt O75015 17-200, limits assumed); assay: SPR, fit Steady State Affinity, Exp No 1
# T8 construct: also called HuFcyRIIIb
# cynomolgus CD32b = target: T9, cynomolgus CD32b (cynomolgus); assay: SPR, fit Steady State Affinity, Exp No 1
# T9 construct: also called CyFcyRIIb
# [5] = target: T2, human CD32b (human FcγRIIB); assay: SPR, fit Steady State Affinity, Exp No 1
# human CD64 (human FcγRI) [6] = target: T10, human CD64 (human FcγRI) (human, UniProt P12314 16-292, limits assumed); assay: SPR, fit 1:1 Binding, Exp No 2
# T10 construct: also called HuFcyRI
# [7] = target: T4, recombinant cynomolgus NKp46 …; assay: SPR (Biacore 8K), NKCE captured by anti-human Fc, antigen as analyte, 1:1 model; Experiment No 1
# Experimental: as §1, §2
# [8] = target: T6, recombinant human NKp46 extracellular …; assay: as above
# Experimental: as §1, §2
# human CD64 (human FcγRI) [9] = target: T10, human CD64 (human FcγRI); assay: SPR, fit 1:1 Binding, Exp No 3
# [10] = target: T11, human NKp46 on NK cells purified from PBMC of healthy donors (human, UniProt O76036 22-304); assay: flow cytometry titration on resting human NK cells from healthy donors, detection with goat anti-human IgG Fcγ-PE; representative titration; NK cells also carry CD16a
# T11 construct: whole, on cells; also called NKp46 on donor NK cells
# Experimental: (§3) After staining, cells were resuspended in BD Cellfix and analyzed by flow cytometry. Parameters were recorded and analysed with FlowJo software. Staining EC50 values were calculated with GraphPad prism using 4 parameter logistics non-linear regression model.
# [11] = target: T3, human BCMA on RPMI 8226 multiple …; assay: flow cytometry titration on RPMI 8226 cells, detection with goat anti-human IgG Fcγ-PE; representative titration
# Experimental: as §3
# T4 sequence (Q95JB9 22-254): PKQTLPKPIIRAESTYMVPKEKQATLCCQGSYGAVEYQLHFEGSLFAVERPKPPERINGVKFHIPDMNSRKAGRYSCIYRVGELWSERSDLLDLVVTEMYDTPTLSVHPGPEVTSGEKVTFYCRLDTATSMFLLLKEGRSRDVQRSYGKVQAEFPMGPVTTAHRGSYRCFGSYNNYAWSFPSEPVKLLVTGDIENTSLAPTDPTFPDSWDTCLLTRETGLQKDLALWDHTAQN
# T6 sequence (O76036 other isoform, or with tags, fused parts or gaps limits assumed): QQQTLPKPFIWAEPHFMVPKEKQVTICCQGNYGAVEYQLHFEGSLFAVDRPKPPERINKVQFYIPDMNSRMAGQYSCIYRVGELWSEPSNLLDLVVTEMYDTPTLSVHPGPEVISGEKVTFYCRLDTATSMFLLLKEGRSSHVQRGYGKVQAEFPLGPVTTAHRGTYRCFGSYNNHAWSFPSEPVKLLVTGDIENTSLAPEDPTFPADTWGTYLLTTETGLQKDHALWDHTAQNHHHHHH
# T5 sequence (A0A2K5UD97 entry or part of it): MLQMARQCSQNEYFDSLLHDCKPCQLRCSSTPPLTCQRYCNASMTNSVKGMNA
# T10 sequence (P12314 16-292 limits assumed): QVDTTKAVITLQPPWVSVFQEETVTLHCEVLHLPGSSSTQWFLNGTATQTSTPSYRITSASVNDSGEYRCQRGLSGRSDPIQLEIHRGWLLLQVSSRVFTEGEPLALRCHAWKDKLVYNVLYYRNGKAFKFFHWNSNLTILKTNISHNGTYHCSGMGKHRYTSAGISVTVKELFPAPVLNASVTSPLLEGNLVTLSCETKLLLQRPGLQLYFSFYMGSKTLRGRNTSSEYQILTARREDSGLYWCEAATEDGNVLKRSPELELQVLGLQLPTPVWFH
# T8 sequence (O75015 17-200 limits assumed): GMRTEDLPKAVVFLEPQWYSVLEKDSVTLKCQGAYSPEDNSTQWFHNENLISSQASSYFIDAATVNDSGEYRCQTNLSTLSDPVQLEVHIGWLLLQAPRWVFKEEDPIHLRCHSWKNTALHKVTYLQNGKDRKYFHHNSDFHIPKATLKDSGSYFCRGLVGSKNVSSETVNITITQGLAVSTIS
# T11 sequence (O76036 22-304): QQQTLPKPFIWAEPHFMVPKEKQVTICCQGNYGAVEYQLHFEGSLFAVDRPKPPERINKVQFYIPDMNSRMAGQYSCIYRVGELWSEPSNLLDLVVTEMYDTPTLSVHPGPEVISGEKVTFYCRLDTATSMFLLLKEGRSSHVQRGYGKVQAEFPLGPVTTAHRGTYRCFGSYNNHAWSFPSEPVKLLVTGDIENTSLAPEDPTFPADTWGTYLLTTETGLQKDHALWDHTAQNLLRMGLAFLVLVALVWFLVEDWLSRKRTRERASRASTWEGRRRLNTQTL
binder,measurement,setting,value
"NKp46-BCMA_Fc-ADE-DSB NKCE (bispecific antibody, human IgG1, kappa) light: QTVVTQEPSLTVSPGGTVTLTCASSTGTVTPSNYANWVQQKPGQAFRGLIGDNNSRPPGTPARFSASLLGGKAALTLSGVQPEDEAEYYCALWFGNQWVFGGGTKLTVLGGGGSGGGGSDIQMTQSPSSLSASVGDRVTITCRASQDISNYLNWYQQKPGKAPKLLIYYTSRLHSGVPSRFSGSGSGTDFTFTISSLQPEDIATYFCQQGNTRPWTFGGGTKVEIKGGGGSGGGGSRTVAAPSVFIFPPSDEQLKSGTASVVCLLNNFYPREAKVQWKVDNALQSGNSQESVTEQDSKDSTYSLSSTLTLSKADYEKHKVYACEVTHQGLSSPVTKSFNRGEC heavy: QVQLVQSGAEVKKPGSSVKVSCKASGYTFSDYVINWVRQAPGQGLEWMGEIYPGSGTNYYNEKFKAKATITADKSTSTAYMELSSLRSEDTAVYYCARRGRYGLYAMDYWGQGTTVTVSSQVQLVESGGGVVQPGRSLRLSCAASGFTFSNFGMHWVRQAPGRGLEWVAVIWSDETNRYYADSVKGRFTVSRDNVKSTVYLQMNSLISEDTAVYYCARDQQYCSSDSCFTWFDPWGQGTLVTVSSASTKGPSVFPLAPSSKSTSGGTAALGCLVKDYFPEPVTVSWNSGALTSGVHTFPAVLQSSGLYSLSSVVTVPSSSLGTQTYICNVNHKPSNTKVDKKVEPKSCDKTHTCPPCPAPELLAGPDVFLFPPKPKDTLMISRTPEVTCVVVDVSHEDPEVKFNWYVDGVEVHNAKTKPCEEQYNSTYRCVSVLTVLHQDWLNGKEYKCKVSNKALPAPEEKTISKAKGQPREPQVYTLPPCRDELTKNQVSLWCLVKGFYPSDIAVEWESNGQPENNYKTTPPVLDSDGSFFLYSKLTVDKSRWQQGNVFSCSVMHEALHNHYTQKSLSLSPG DKTHTCPPCPAPELLAGPDVFLFPPKPKDTLMISRTPEVTCVVVDVSHEDPEVKFNWYVDGVEVHNAKTKPCEEQYNSTYRCVSVLTVLHQDWLNGKEYKCKVSNKALPAPEEKTISKAKGQPREPQVCTLPPSRDELTKNQVSLSCAVKGFYPSDIAVEWESNGQPENNYKTTPPVLDSDGSFFLVSKLTVDKSRWQQGNVFSCSVMHEALHNRFTQKSLSLSPG",Kd,[1],16.2 nM
same,koff,[1],0.0034 s⁻¹
same,kon,[1],210000 M⁻¹ s⁻¹
same,Kd,recombinant human BCMA,0.2 nM
same,koff,recombinant human BCMA,6.9e-05 s⁻¹
same,kon,recombinant human BCMA,320000 M⁻¹ s⁻¹
same,Kd,cyno BCMA (PPB-17990),0.3 nM
same,koff,cyno BCMA (PPB-17990),5.8e-05 s⁻¹
same,kon,cyno BCMA (PPB-17990),180000 M⁻¹ s⁻¹
same,Kd,[2],13.2 nM
same,koff,[2],0.0018 s⁻¹
same,kon,[2],140000 M⁻¹ s⁻¹
same,Kd,[3],415 nM
same,Kd,cynomolgus CD32a,1350 nM
same,Kd,[4],1260 nM
same,Kd,cynomolgus CD32b,884 nM
same,Kd,[5],1350 nM
same,Kd,human CD64 (human FcγRI) [6],0.27 nM
same,Kd,[7],16.6 nM
same,koff,[7],0.003 s⁻¹
same,kon,[7],210000 M⁻¹ s⁻¹
same,Kd,[8],11.8 nM
same,koff,[8],0.0019 s⁻¹
same,kon,[8],160000 M⁻¹ s⁻¹
same,Kd,human CD64 (human FcγRI) [9],0.38 nM
same,EC50 (read off the curve),[10],~0.9 µg/mL
same,EC50 (read off the curve),[11],~1 µg/mL
